The values that follow come from patent US20220016215A1, “GIP RECEPTOR AGONIST PEPTIDE COMPOUNDS AND USES THEREOF” (TAKEDA PHAARMACEUTICAL COMPANY LIMITED, priority 2018, published 2022).

Starred links: 1 amine or outer side, 2 acyl side, 3 side chain; linkers in the order of their positions; H or OH if unused. Non-standard residues stand in square brackets, D forms with d. Groups on a side chain read outwards from the residue. No end group written: not given here. *: point of attachment. C15 diacid = O=C(O)CCCCCCCCCCCCCC(=O)*; γGlu = O=C(O)[C@H](CCC(=O)[*:2])N[*:1]; Palmitoyl = CCCCCCCCCCCCCCCC(=O)*; acyl = not defined here; Aib = CC(C)(N)C(=O)O

To fix the notation:
T1: human GIPR (human, UniProt P48546 22-466)
T1 sequence (looked up): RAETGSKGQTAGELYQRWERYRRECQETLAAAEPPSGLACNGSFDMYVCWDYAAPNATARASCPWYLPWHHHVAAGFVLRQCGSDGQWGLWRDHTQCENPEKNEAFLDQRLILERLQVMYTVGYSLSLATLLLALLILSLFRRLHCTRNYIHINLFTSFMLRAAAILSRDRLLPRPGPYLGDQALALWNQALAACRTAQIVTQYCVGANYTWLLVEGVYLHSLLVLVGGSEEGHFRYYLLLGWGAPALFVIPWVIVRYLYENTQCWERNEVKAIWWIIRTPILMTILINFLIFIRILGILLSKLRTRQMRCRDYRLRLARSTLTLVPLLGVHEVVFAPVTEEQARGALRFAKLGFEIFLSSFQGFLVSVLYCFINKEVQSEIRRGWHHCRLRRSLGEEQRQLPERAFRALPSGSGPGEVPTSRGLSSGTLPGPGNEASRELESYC

B1: Compound No. 9 (peptide)
peptide: FXEGTFISDYXIAXDKIHQQDFVNWLLAQKGKKNDWKHNITQ
modifications: Aib at 2; X* = 1-amino,1-cyclopentane carboxylic acid at 11; Nle at 14; C-terminal -OH

The first test has as its target human GLP-1R (human, UniProt P43220 24-463). As to the kind of experiment: cell-based or functional assay.
On to YAEGTFISDYSIAMDKIHQQDFVNWLLAQKGKKNDWKHNIIQ (Lys-(palmitoyl acyl fatty acid acyl) at 16; C-terminal -NH2) [Compound No. 3], for which the “GLP1R EC50 nM (B)” value is 148 nM and the “GLP1R pEC50” value is 6.8.
The matching figures for B1: greater than 1000 nM and less than 6.
The matching figures for YXEGTFISDYSIXXDKIHQQDFVNWLLAQKGKKNDWKHNITQ (3,5-diBr-Tyr at 1; Aib at 2; Aib at 13; Nle at 14; C-terminal -OH) [Compound No. 8]: 118 nM and 6.9.
For Y[Aib]EGTFISDYSIALDKK([ethylene glycol-ethylene glycol-C15 diacid])HQQDFVNWLLAQRG-OH [Compound No. 26], in that order: greater than 1000 nM and less than 9.
As for Y[dA]EGTFISDYSIAMDKIHQQDFVNWLLAQKGKKNDWKHNIIQ-NH2 [Compound No. 14], the “GLP1R EC50 nM (B)” value came out at 933 nM and the “GLP1R pEC50” value is 6.03.
Y[Aib]EGTFISDYSIAMDKK([γGlu-Palmitoyl])HQQDFVNWLLAQKGKKNDWKHNIIQ-OH (not fully specified; also: acyl given as C16DA in synthesis) [Compound No. 5]: the “GLP1R pEC50” value was determined as 7.
The same measure, in the same setting: under Y[Aib]EGTFISDYSIALDKK([ethylene glycol-ethylene glycol-C15 diacid])HQQDFVNWLLAQR-NH2 [Compound No. 27] stands 6.02.
For the molecule Y[Aib]EGTFTSDYSI[Aib]LDKIAQRAFVQWLIA[Aib]KGKKQEWKHQITQK(acyl)-NH2 (reading uncertain; also: Lys43 acylated, acyl not given here) [Compound No. 16], the “GLP1R EC50 nM (B)” value was less than 0.02 nM.
Regarding Y[Aib]EGTFISDYSIALDKIK([ethylene glycol-ethylene glycol-C15 diacid])QQDFVNWLLAQRG-OH [Compound No. 25], the “GLP1R EC50 nM (B)” value is greater than 1000 nM and the “GLP1R pEC50” value was less than 8.

The next test deals with T1, human GIPR. Description: cell-based or functional assay.
Consider YAEGTFISDYSIAMDKIHQQDFVNWLLAQKGKKNDWKHNIIQ (Lys-(palmitoyl acyl fatty acid acyl) at 16; C-terminal -NH2) [Compound No. 3], for which the “GIPR EC50 nM (A)” value was found to be 0.331 nM and the “GIPR pEC50” value was found to be 9.5.
With B1, the “GIPR EC50 nM (A)” value is 0.004 nM; the “GIPR pEC50” value turned out to be 11.4; the “Selectivity Ratio (B/A), GLP1R EC50 over GIPR EC50” value (“Selectivity Ratio (B/A), GLP1R EC50” for short) is greater than 100000.
On to YXEGTFISDYSIXXDKIHQQDFVNWLLAQKGKKNDWKHNITQ (3,5-diBr-Tyr at 1; Aib at 2; Aib at 13; Nle at 14; C-terminal -OH) [Compound No. 8], for which the “GIPR pEC50” value was determined as 10.7 and the “Selectivity Ratio (B/A), GLP1R EC50” value worked out at 5600.
On to Y[Aib]EGTFISDYSIALDKK([ethylene glycol-ethylene glycol-C15 diacid])HQQDFVNWLLAQRG-OH [Compound No. 26], for which the “GIPR EC50 nM (A)” value amounted to 0.001 nM.
Turning to Y[dA]EGTFISDYSIAMDKIHQQDFVNWLLAQKGKKNDWKHNIIQ-NH2 [Compound No. 14], the “GIPR EC50 nM (A)” value worked out at 0.001 nM and the “GIPR pEC50” value amounted to 12.3.
For the molecule Y[Aib]EGTFISDYSIAMDKK([γGlu-Palmitoyl])HQQDFVNWLLAQKGKKNDWKHNIIQ-OH (not fully specified; also: acyl given as C16DA in synthesis) [Compound No. 5], the “GIPR EC50 nM (A)” value was determined as 0.001 nM; the “GIPR pEC50” value stood at 11.9; the “Selectivity Ratio (B/A), GLP1R EC50” value amounted to 93300.
Take Y[Aib]EGTFISDYSIALDKK([ethylene glycol-ethylene glycol-C15 diacid])HQQDFVNWLLAQR-NH2 [Compound No. 27]: the “GIPR EC50 nM (A)” value is 0.001 nM.
Turning to Y[Aib]EGTFTSDYSI[Aib]LDKIAQRAFVQWLIA[Aib]KGKKQEWKHQITQK(acyl)-NH2 (reading uncertain; also: Lys43 acylated, acyl not given here) [Compound No. 16], the “GIPR EC50 nM (A)” value turned out to be 0.001 nM and the “GIPR pEC50” value came to 12.
Take Y[Aib]EGTFISDYSIALDKIK([ethylene glycol-ethylene glycol-C15 diacid])QQDFVNWLLAQRG-OH [Compound No. 25]: the “GIPR EC50 nM (A)” value is less than 0.001 nM.
